The values that follow come from publication PMC6177315 (Biochemistry, 2018).

To fix the notation:
B1: eIF5_(196–431) (GH-eIF5-CTD) (domain or fragment, human, UniProt P55010 196-431, looked up)
chain: EEEEDDDWGEDTTEEAQRRRMDEISDHAKVLTLSDDLERTIEERVNILFDFVKKKKEEGVIDSSDKEIVAEAERLDVKAMGPLVLTEVLFNEKIREQIKKYRRHFLRFCHNNKKAQRYLLHGLECVVAMHQAQLISKIPHILKEMYDADLLEEEVIISWSEKASKKYVSKELAKEIRVKAEPFIKWLKEAEEESSGGEEEDEDENIEVVYSKAASVPKVETVKSDNKDDDIDIDAI
B3: human eIF5B_(951–1220), comprising domains 3 and 4 (GH-eIF5B-D34) (domain or fragment, UniProt O60841 951-1220, looked up)
chain: YKEDEIPVLKDELIHELKQTLNAIKLEEKGVYVQASTLGSLEALLEFLKTSEVPYAGINIGPVHKKDVMKASVMLEHDPQYAVILAFDVRIERDAQEMADSLGVRIFSAEIIYHLFDAFTKYRQDYKKQKQEEFKHIAVFPCKIKILPQYIFNSRDPIVMGVTVEAGQVKQGTPMCVPSKNFVDIGIVTSIEINHKQVDVAKKGQEVCVKIEPIPGESPKMFGRHFEATDILVSKISRQSIDALKDWFRDEMQKSDWQLIVELKKVFEII
B6: human eIF5B_(1076–1220), comprising domain 4 (GH-eIF5B-D4) (domain or fragment, UniProt O60841 1076-1220, looked up)
chain: YKKQKQEEFKHIAVFPCKIKILPQYIFNSRDPIVMGVTVEAGQVKQGTPMCVPSKNFVDIGIVTSIEINHKQVDVAKKGQEVCVKIEPIPGESPKMFGRHFEATDILVSKISRQSIDALKDWFRDEMQKSDWQLIVELKKVFEII

Assay in all cases: fluorescence polarisation
In general terms: Polarisation of emitted light reports the rotation of a fluorescent probe.

For test [1], the target named is B3.
The target in test [2] is B6.
In test [3] the target is B3. The source holds these as a separate data set.
Test [4] addresses Full-length human eIF5 (GH-eIF5) (human, UniProt P55010 1-431).
For test [5], the target named is B6. This is another data set of the same source.
In test [6] the target is B1.

Usually Kd stands for a measure of binding affinity in units of concentration. Higher therefore signals lower affinity.

Like-named read-outs stand apart in the source and are kept apart here. Where no end group is shown, it is not given here.

Regarding B1, in test [1], the Kd was found to be 720 nM.

B2: fluorescein-labeled 7-residue eIF5 C-terminal peptide (Fl-eIF5-CT7) (peptide, UniProt P55010 425-431, looked up)
peptide: DIDIDAI
modifications: also: fluorescein label, position not given here
In the case of B2, the figures for the Kd in test [2] and in test [3] were 1400 nM and 2400 nM, respectively.
B3 came in with a Kd in test [4] of 510 nM.

B4: eIF5 fragment comprising the C-terminal 9 residues (eIF5-CT9) (peptide, UniProt P55010 423-431, looked up)
chain: DDDIDIDAI
Consider B4, for which the figures for the Kd in test [5] and in test [1] were 740 nM and 1200 nM, respectively.

B5: eIF5 fragment comprising the C-terminal 39 residues (eIF5-CT39) (peptide, UniProt P55010 393-431, looked up)
chain: EEEDEDENIEVVYSKAASVPKVETVKSDNKDDDIDIDAI
Turning to B5, the Kd in test [5] came to 500 nM; in test [1], 1100 nM.
With B6, the Kd in test [4] and in test [6] was 370 nM in each case.
